In patent publication US20130102009A1, “SIRTUIN ACTIVATORS AND ACTIVATION ASSAYS” (priority 2010, published 2013) one finds Km data, which are given here for 1 protein.

Common to all, as to assay: Steady-state kinetic parameters for SIRT1 substrates (PNC1-GDH-coupled assay)
Format in all cases: biochemical, human
Common to all, as to details: other: 25° C., pH 7.5, [NAD+]o = 2 mM, [SIRT1]o 50-1,000 nM

Substrate in series [1]: CC(=O)NCCCC[C@H](NC(=O)[C@H](CCCCN)NC(=O)[C@H](Cc1c[nH]cn1)NC(=O)[C@H](CCCNC(=N)N)NC(C)=O)C(=O)N[C@@H](Cc1c[nH]c2ccccc12)C(N)=O
As for the experimental part:
(§1) All peptides were prepared by BioPeptide (San Diego, Calif.) and shown to be at least 95% pure by analytical HPLC analysis. Bovine glutamate dehydrogenase (GDH), α-ketoglutarate, NADH and NAD^+ were from Sigma Chemical Company. Full-length, human SIRT1 and the truncated version used for biophysical studies SIRT1(183-664) were prepared as described previously, and shown to have equivalent kinetic properties (Milne et al. (2007) Nature 450, 712-716). The nicotinamidase PNC1 was prepared as described by Denu and colleagues (Smith et al. (2009) Anal Biochem 394, 101-109).
(§2) To determine the interaction of STACs with SIRT1 two kinetic methods were employed. One, which was used for TAMRA-peptide, desTAMRA-peptide, des(biotin,TAMRA)-peptide, and p53-20 mer, used a previously described mass spectroscopic method for detection of peptide reaction products (Milne et al. (2007) Nature 450, 712-716). The other, used with peptides of general structure Ac-Arg-His-Lys-Lys^Ac-X, used a continuous, enzyme-coupled method reported previously (Smith et al. (2009) Anal Biochem 394, 101-109), in which the SRT1 product nicotinamide is first converted into nicotinic acid and ammonia by the action of PNC1, and the ammonia then used by GDH to convert α-ketoglutarate into glutamate. This reaction occurs with oxidation of NADH to NAD^+ which is accompanied by a change in absorbance at 340 nm (Δε340=−6,200 M^−1 cm^−1).
(§3) The kinetic experiments used to characterize activators were run on a Perkin Elmer Lambda 25 spectrophotometer equipped with a water-jacketed, eight-cell changer maintained at 25° C. In a typical kinetic experiment, all components of the reaction solution except SIRT1 were added to a 1 mL cuvette and allowed to reach thermal equilibrium. Final concentrations of the coupling system components were: 1 μM PNC1, 0.23 mM NADH, 3.4 mM α-ketoglutarate, and 20 U/mL bovine GDH. This solution also contained peptide substrate, NAD^.0., and activator, at concentrations indicated in the text. The final DMSO concentration was kept constant at 1%, and the buffer used in these experiments was 50 mM HEPES, 150 mM NaCl, pH 7.5. While the system was reaching thermal equilibrium, the absorbance was monitored to provide an accurate estimate of the background rate, which was subtracted from the reaction rate after the addition of SIRT1.
(§4) The parameters reported in this table were all determined using the PNC1-GDH-coupled assay. Kinetic parameters for the four 20 mers were also estimated using the mass spectroscopy-based assay first described by Milne et al. ((2007) Nature 450, 712-716) and agree with those reported in Table 3.

Substrate in series [2]: CCCC[C@H](NC(=O)[C@H](CCCCNC(C)=O)NC(=O)[C@H](CO)NC(=O)[C@H](Cc1c[nH]cn1)NC(=O)[C@H](CO)NC(=O)[C@H](CO)NC(=O)[C@@H](NC(=O)[C@H](CO)NC(=O)[C@H](CCC(N)=O)NC(=O)CNC(=O)[C@H](CCCCNC(=O)CCCC[C@@H]1SC[C@@H]2NC(=O)N[C@@H]21)NC(=O)[C@H](CCC(=O)O)NC(=O)[C@H](CCC(=O)O)NC(C)=O)[C@@H](C)O)C(=O)N[C@@H](CO)C(=O)N[C@H](C(=O)N[C@@H](CCC(=O)O)C(=O)NCC(=O)N[C@@H](CCCCN)C(=O)N[C@@H](CCC(=O)O)C(=O)N[C@@H](CCC(=O)O)C(N)=O)[C@@H](C)O
As to the method: as §1, §2, §3, §4

Substrate in series [3]: CC(=O)NCCCC[C@H](NC(=O)[C@H](CCCCN)NC(=O)[C@H](Cc1c[nH]cn1)NC(=O)[C@H](CCCNC(=N)N)NC(C)=O)C(=O)Nc1ccc2c(C)cc(=O)oc2c1
As for the experimental part:
as §1, §2, §3, §4

Substrate in series [4]: CC(=O)NCCCC[C@H](NC(=O)[C@H](CCCCN)NC(=O)[C@H](Cc1c[nH]cn1)NC(=O)[C@H](CCCNC(=N)N)NC(C)=O)C(N)=O
As to the method:
as §1, §2, §3, §4

Substrate in series [5]: CC(=O)NCCCC[C@H](NC(=O)[C@H](CCCCN)NC(=O)[C@H](Cc1c[nH]cn1)NC(=O)[C@H](CCCNC(=N)N)NC(C)=O)C(=O)N[C@@H](C)C(N)=O
As for the experimental part: as §1, §2, §3, §4

Substrate in series [6]: CC(=O)NCCCC[C@H](NC(=O)[C@H](CCCCN)NC(=O)[C@H](Cc1c[nH]cn1)NC(=O)[C@H](CCCNC(=N)N)NC(C)=O)C(=O)N[C@@H](Cc1ccccc1)C(N)=O
As to the method: as §1, §2, §3, §4

B1: SIRT1 (Homo sapiens) (protein)
chain: MADEAALALQPGGSPSAAGADREAASSPAGEPLRKRPRRDGPGLERSPGEPGGAAPEREVPAAARGCPGAAAAALWREAEAEAAAAGGEQEAQATAAAGEGDNGPGLQGPSREPPLADNLYDEDDDDEGEEEEEAAAAAIGYRDNLLFGDEIITNGFHSCESDEEDRASHASSSDWTPRPRIGPYTFVQQHLMIGTDPRTILKDLLPETIPPPELDDMTLWQIVINILSEPPKRKKRKDINTIEDAVKLLQECKKIIVLTGAGVSVSCGIPDFRSRDGIYARLAVDFPDLPDPQAMFDIEYFRKDPRPFFKFAKEIYPGQFQPSLCHKFIALSDKEGKLLRNYTQNIDTLEQVAGIQRIIQCHGSFATASCLICKYKVDCEAVRGDIFNQVVPRCPRCPADEPLAIMKPEIVFFGENLPEQFHRAMKYDKDEVDLLIVIGSSLKVRPVALIPSSIPHEVPQILINREPLPHLHFDVELLGDCDVIINELCHRLGGEYAKLCCNPVKLSEITEKPPRTQKELAYLSELPPTPLHVSEDSSSPERTSPPDSSVIVTLLDQAAKSNDDLDVSESKGCMEEKPQEVQTSRNVESIAEQMENPDLKNVGSSTGEKNERTSVAGTVRKCWPNRVAKEQISRRLDGNQYLFLPPNRYIFHGAEVYSDSEDDVLSSSSCGSNSDSGTCQSPSLEEPMEDESEIEEFYNGLEDEPDVPERAGGAGFGTDGDDQEAINEAISVKQEVTDMNYPSNKS
As to B1, the Km in series [1] came to 4.0 µM; in series [2] it was 33 µM; in series [3], 110 µM; in series [4], 23 µM; in series [5], 13 µM; in series [6], 7.1 µM.
